# B1: 5B11 (antibody, IgG2, V domains shown)
# VH: QVQLVESGGGVVQPGRSVRLSCAASGFTFSSYGMHWVRQTPGKGLEWVAIIWYDGGIEYYADSVKGRFTISRDNSKNTLYLQMNSLRAEDTAVYYCARDHRYGSSWFDYWGQGTLVTVSS
# VL: DIQMTQSPSSLSASVGDRVTITCRASQGINNYLAWFQQKPGKAPKSLIYAASSLQSGVPSNFSGSGSGTDFTLSISSLQPEDFATYYCQQYKSYPLTFGGGTKVEIR
# notes: also called MAb 5B11; mAb 5B11
# B2: 3C5 (antibody, IgG2, V domains shown)
# VH: RVQLQESGPGLVKPSQTLSLTCTVSGGSIISGGYFWTWIRQHPGKGLEWIGYIYYSGSTYYSPSLKSRVTISVDTSKNQFSLKLSSVTAADTAVYYCTRAVPAAKGYYSYYGMDVWGQGTTVTVSS
# VL: DIVMTQSPLSLPVTPGEPASISCRSSQSLLHSSGYNYLDWFLQKPGQSPQLLIYLSSNRASGVPDRFSGSGSGTDFTLKISRVEAEDVGVYYCMQALQTPFTFGPGTKVDIK
# notes: also called MAb 3C5; mAb 3C5
# How the values were obtained:
# Macaque α5β1 = target: T1, Macaque α5β1 (Macaque); experiment: FACS on macaque PBMC, 1 mM Mn2+
# T1 construct: whole, on cells; macaque species not specified; also called monkey α5β1; monkey integrin
# Protocol: To determine whether the antibodies cross reacted to monkey integrin, binding to purified Macaque T-cells was assessed. Macaque PBMCs were previously purified from whole blood, and stored frozen. Macaque PBMCs were suspended in adhesion buffer with HBSS 1% BSA and 1 mM Mn2+ (“FACS buffer”), at a concentration of 4.8×10⁵ live cells per ml. 12.5 uL of the primary antibody was added to 37.5 ul of cells, and incubated at 4° C. for 1 hour. Positive and negative controls were included as indicated. 100 uL of FACs buffer is added to dilute out primary antibody, the cells washed and resuspended in the appropriate secondary at 2 ug/mL (50 uL) with 10 ug/mL 7AAD, and stained on ice for 7 minutes. 100 uL of FACs buffer was added and cells were washed twice in FACS buffer, finally the supernatant removed and the cells were resuspended in 100 uL of buffer.
# Samples were read on HTS FACS machine and analyzed using Cell Quest Pro software. The data shown in Table 7 confirm that the antibodies cross react with monkey α5β1.
# [1] = target: T2, α4β1 integrin on J6.77 Jurkat cells (UniProt P13612 34-1032; P05556 21-798); experiment: cell-based or functional assay
# T2 sequence (P13612 34-1032, chain 1 of 2): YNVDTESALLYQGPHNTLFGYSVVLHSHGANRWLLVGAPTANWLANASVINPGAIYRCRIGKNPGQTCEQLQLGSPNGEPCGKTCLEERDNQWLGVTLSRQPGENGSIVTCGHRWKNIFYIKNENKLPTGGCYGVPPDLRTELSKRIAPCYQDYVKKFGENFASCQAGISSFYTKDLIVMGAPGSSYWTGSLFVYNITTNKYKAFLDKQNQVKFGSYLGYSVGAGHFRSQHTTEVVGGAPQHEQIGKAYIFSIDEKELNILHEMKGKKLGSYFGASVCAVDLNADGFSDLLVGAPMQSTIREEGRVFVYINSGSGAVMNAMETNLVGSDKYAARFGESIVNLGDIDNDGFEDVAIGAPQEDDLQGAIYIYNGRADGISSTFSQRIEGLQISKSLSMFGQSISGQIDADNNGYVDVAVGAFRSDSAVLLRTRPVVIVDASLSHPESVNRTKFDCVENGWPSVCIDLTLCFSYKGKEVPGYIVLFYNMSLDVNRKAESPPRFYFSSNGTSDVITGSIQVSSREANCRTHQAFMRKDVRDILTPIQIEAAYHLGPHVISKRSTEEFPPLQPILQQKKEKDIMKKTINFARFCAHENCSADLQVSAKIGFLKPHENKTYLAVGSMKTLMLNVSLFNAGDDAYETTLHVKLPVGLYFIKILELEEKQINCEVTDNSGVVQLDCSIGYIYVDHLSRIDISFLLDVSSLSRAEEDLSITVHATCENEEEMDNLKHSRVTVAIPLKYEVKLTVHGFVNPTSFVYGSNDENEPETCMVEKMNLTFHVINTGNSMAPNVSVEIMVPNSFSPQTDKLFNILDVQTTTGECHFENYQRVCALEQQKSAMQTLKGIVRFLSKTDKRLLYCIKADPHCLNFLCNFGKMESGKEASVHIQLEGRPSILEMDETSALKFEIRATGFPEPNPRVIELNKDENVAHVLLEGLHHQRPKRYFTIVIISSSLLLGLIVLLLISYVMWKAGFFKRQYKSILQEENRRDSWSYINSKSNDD
# T2 sequence (P05556 21-798, chain 2 of 2): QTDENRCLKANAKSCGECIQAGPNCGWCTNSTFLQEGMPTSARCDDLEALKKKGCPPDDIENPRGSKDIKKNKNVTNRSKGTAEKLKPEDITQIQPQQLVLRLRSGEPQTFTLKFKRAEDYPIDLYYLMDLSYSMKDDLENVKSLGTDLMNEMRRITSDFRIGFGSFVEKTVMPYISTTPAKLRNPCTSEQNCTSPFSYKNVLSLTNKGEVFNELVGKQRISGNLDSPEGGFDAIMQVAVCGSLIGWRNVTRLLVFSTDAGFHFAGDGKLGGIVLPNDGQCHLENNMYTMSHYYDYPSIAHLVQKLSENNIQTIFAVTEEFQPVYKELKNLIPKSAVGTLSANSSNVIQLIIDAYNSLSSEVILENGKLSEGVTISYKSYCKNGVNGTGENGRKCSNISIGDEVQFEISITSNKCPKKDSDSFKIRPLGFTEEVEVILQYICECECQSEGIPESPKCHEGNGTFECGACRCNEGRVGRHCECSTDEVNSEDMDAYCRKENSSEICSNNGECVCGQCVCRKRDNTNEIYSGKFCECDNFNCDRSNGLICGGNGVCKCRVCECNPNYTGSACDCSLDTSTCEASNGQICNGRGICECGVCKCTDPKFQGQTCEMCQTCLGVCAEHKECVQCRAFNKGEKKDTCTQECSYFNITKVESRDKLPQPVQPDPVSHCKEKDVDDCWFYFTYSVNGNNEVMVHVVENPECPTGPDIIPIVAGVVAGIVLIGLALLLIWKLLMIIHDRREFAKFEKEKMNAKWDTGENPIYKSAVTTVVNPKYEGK
# [2] = target: T3, β1 integrin chain on HT29 cells (α5 null line) (human, UniProt P05556 21-798); experiment: FACS on HT29 cells (no α5, β1 present)
# T3 construct: whole, on cells; β1 is paired with alpha chains other than α5 on these cells; also called β1 chain; beta1
# T3 sequence (P05556 21-798): as the sequence (P05556 21-798, chain 2 of 2) above
# Protocol: To confirm the antibodies bind to the α5 chain or to the α5β1 heterodimer, binding to Human colon adenocarcinoma grade II cells (HT29 cells) was assessed by FACS. […] HT-29 cells were suspended in HBSS with 1% BSA and 1 mM final MnCL₂ at a concentration of 6×10⁵ cells/ml.12.5 uL of the primary antibody was added to 37.5 ul of cells and the plate incubated on ice for 60 minutes. A range of negative controls were included as described previously (indicated as below). In addition as a positive control antibodies to αvβ6 (Mab2077, Chemicon), α5β1 (Mab1909, Chemicon) and av (L230, Chemicon) were included. 100 uL of HBSS buffer was added to dilute primary antibody, the cells pelleted by centrifuging at 1500 rpm for 3 minutes and resuspended in 50 ul Goat anti-human IgG Fc Cy5 or Goat anti Mouse IgG Fc Cy5 secondary at 2 ug/mL. They were then incubated on ice for a further 7 minutes, and 100 uL of HBSS buffer was added to dilute secondary antibody. Finally cells were pelleted by centrifuging at 1500 rpm for 3 minutes, HBSS Buffer/secondary supernatant removed, washed twice in 100 ul of FACS buffer was added and the cells were resuspended and then read on a FACS Calibur HTS. Samples were analyzed using Cell Quest Pro software. The data is represented in Table 6 and confirm that the antibodies are selective for α5β1.
# [3] = target: T2, α4β1 integrin on J6.77 Jurkat cells; experiment: cell-based or functional assay; remark: listed apart in the source
# human α5β1 integrin [4] = target: T4, human α5β1 integrin (human, UniProt P08648 42-1049; P05556 21-798); experiment: FACS-based KD titration on K562 cells, 4 C, 5 h, 1 mM MgCl2 and 1 mM CaCl2
# T4 construct: whole, on cells; also called a5b1; cellular α5β1
# T4 sequence (P08648 42-1049, chain 1 of 2): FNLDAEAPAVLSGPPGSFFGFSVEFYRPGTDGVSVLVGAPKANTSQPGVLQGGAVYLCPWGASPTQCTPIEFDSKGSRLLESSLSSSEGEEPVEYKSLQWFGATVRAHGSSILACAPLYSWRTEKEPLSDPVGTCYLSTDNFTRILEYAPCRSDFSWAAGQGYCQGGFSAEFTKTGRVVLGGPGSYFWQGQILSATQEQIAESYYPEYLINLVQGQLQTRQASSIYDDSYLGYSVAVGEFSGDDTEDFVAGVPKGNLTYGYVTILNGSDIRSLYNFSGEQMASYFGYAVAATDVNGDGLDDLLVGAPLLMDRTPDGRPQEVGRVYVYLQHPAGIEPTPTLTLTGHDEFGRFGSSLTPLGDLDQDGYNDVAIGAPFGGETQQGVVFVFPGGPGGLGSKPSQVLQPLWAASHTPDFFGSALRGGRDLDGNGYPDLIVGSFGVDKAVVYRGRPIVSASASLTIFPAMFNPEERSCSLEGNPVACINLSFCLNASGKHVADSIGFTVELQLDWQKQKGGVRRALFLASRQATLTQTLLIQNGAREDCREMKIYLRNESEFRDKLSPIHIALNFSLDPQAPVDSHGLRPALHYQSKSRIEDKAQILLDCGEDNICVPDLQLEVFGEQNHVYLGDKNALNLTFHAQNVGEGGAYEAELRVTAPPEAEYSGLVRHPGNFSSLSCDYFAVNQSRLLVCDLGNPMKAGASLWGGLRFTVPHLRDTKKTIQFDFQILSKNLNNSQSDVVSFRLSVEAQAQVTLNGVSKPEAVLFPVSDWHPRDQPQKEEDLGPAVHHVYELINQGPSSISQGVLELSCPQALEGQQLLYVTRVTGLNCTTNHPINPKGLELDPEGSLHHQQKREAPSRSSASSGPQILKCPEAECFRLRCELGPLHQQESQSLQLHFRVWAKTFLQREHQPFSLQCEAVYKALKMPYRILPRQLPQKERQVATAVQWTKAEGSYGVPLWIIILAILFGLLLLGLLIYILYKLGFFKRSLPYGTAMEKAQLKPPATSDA
# T4 sequence (P05556 21-798, chain 2 of 2): as the sequence (P05556 21-798, chain 2 of 2) above
# Protocol: To assess the affinity of the antibodies for α5β1, a FACS based KD analysis was employed. […] K562 cells expressing α5β1 were resuspended in filtered HBS buffer containing 1 mM MgCl₂ and 1 mM CaCl₂ at a concentration of approximately 2.5-6 million cells/mL. The cells were kept on ice. Serially diluted (2×) mAbs across 11 wells in a 96-well plate. All mAbs were diluted in HBS described above. Additional HBS and cells were added to each well so that the final volume was 300 μL/well and each well contained approximately 140,000-150,000 cells. The final molecular concentration range for each mAb was 3C5: 3.8 nM -7.5 μM; 5B11: 3.8 nM-7.3 μM. Cells were incubated on a plate shaker for 5 hours at 4° C. and then were spun/washed 3× at 4° C. with HBS. […] The Mean Fluorescence (F) of 7000 “events” was determined using FACS Canto II HTS flow cytometry instrumentation. To calculate affinity, data was fitted nonlinearly to a plot of the Mean Fluorescence as a function of molecular mAb concentration with Scientist 3.0 software using the equation:
# In this equation, F=mean fluorescence, LT=total molecular mAb concentration, P′=proportionality constant that relates arbitrary fluorescence units to bound mAb, M=cellular concentration in molarity, n=number of receptors per cell, B=background signal, and KD=equilibrium dissociation constant. […]
# human α5β1 integrin [5] = target: T4, human α5β1 integrin; experiment: cell-based or functional assay
# human α5β1 integrin [6] = target: T4, human α5β1 integrin; experiment: cell-based or functional assay; remark: listed apart in the source
# mouse α5β1 integrin = target: T5, mouse α5β1 integrin (mouse, UniProt P11688 45-999; P09055 21-728, limits assumed); experiment: not described
# T5 construct: printed only as mouse integrin / murine integrin; also called mouse integrin; murine integrin
# T5 sequence (P11688 45-999 limits assumed, chain 1 of 2): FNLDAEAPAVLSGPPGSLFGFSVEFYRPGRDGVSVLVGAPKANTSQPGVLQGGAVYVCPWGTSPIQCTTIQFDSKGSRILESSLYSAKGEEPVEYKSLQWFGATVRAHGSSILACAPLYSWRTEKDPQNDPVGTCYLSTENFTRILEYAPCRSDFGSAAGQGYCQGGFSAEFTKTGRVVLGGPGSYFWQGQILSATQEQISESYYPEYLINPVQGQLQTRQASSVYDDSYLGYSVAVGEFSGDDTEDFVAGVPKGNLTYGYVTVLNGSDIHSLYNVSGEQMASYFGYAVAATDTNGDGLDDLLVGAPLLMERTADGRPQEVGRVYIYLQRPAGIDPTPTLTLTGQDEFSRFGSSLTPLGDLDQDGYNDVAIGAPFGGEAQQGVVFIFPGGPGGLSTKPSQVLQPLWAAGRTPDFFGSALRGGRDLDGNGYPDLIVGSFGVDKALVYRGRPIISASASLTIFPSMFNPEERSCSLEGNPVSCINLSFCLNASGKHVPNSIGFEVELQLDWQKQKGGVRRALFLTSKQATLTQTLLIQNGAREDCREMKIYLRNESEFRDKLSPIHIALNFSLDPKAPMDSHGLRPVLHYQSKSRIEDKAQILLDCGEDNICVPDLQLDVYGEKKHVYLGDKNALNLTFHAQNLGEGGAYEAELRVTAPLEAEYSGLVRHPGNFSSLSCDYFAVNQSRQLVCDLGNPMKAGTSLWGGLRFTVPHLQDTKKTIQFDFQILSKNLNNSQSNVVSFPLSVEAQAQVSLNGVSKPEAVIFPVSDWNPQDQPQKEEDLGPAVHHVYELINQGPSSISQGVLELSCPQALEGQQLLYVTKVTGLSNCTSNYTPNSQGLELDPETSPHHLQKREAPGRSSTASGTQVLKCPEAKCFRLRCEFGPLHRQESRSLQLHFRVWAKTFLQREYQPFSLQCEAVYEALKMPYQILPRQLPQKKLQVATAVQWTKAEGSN
# T5 sequence (P09055 21-728 limits assumed, chain 2 of 2): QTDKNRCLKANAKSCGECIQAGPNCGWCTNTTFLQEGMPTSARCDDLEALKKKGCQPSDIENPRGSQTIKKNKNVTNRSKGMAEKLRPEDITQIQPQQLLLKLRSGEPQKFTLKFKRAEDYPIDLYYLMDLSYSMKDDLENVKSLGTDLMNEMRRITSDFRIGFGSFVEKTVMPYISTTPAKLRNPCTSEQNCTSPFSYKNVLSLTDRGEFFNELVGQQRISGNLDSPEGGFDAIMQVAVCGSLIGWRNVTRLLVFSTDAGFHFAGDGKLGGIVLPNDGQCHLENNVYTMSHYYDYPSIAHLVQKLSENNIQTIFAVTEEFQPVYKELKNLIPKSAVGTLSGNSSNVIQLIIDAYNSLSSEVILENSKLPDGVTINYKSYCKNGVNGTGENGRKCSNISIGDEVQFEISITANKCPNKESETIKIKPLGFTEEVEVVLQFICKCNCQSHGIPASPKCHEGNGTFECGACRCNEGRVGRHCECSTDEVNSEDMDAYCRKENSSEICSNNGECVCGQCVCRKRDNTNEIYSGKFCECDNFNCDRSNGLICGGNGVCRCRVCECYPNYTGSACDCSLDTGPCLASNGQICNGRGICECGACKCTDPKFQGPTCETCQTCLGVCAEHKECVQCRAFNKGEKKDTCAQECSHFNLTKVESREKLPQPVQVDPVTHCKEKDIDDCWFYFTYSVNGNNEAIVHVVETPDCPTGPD
Binder,Geo Mean on Macaque T-cells IgG detection (Macaque α5β1),% Inhibition of adhesion CS1 n = 1 (J6.77 Jurkat on GST-CS-1) [1],% Inhibition of adhesion CS1 n = 2 (J6.77 Jurkat on GST-CS-1) [1],Binding Geomean [2],binding result [2],Average % inhibition at 5 ug/ml (J6 adhesion to GST-CS-1) [3],Kd (human α5β1 integrin [4]),% Inhibition of cell adhesion n = 1 (K562 on full length FN) (human α5β1 integrin [5]),% Inhibition of cell adhesion n = 2 (K562 on full length FN) (human α5β1 integrin [5]),"% Inhibition of cell adhesion n = 3 (K562 on GST-FNIII(9-10), no pre-incubation) (human α5β1 integrin [5])","% Inhibition of cell adhesion n = 4 (K562 on GST-FNIII(9-10), supernatant 1 in 10) (human α5β1 integrin [5])","% Inhibition of cell adhesion n = 5 (K562 on GST-FNIII(9-10), supernatant 1 in 10) (human α5β1 integrin [5])",IC50 ng/mL (K562 adhesion to GST-FNIII(9-10)) (human α5β1 integrin [6]),binding result (mouse α5β1 integrin)
B1,12,27%,-15%,4.62,no binding,-9%,0.0347 nM,96%,98%,90%,97%,102%,28.4 ng/mL,–
B2,16,24%,-4%,4.04,no binding,0%,0.0147 nM,97%,96%,99%,97%,104%,12.4 ng/mL,no binding
